The source of these data is the domain aggregation screens of Martell et al. (2025).

The series is described as follows: soluble fraction after stress (log2 fold change); higher = more stays soluble; pooled small domains, quantitative proteomics. The conditions noted are these: stress: 50 degC. In a few lines:
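Each library was heated to 50°C as a stress step. The libraries, made up of small protein domains, were pooled and analysed at high throughput by quantitative proteomics. The reported value is the base-two logarithm of the fold change in each protein's soluble amount after stress, taken as a measure of aggregation propensity. The higher the value, the more protein stays in solution.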

For “HMKRLPAQMGGGDGVLRVPGLNNFVYVTIADKTLPAFNNRVPPKKGLRIWVGYSPEEPNLFQVLSTRTD”, the “soluble fraction (log2)” value is -0.576.
The result for “HMVSGSPTVDILMQRGLEYQQQENLEAARDAFDRAINLKPDYAEAWNRRAVLFFNEGKYDEAIADLETAIT” reads 0.077; that for “HMTFEPVYDENSRILILGTFPSVKSREQQFYYGHPQNRFWKLLAALTGWKVPKTISEKKELLLQNGIA”, -0.136; that for “HMNTDALIGKTGYVTEIVGERHGRIQFSGGEWSARTEGVSIPVGAEVRVDRIDGATAVVSAV”, 0.115.
Take “HMDILPEGNYKVNYDVIDEVGNIVANKNDIVVTEKSIKPLNTILGIDLYEVIHSQTGKYFTINGDNLTN”: the “soluble fraction (log2)” value was -0.00162.
As to “HMAGATDTVRNLLERQIREGELLPGQRLPTEPELAARLGVSRNSLREALQSLEDSGLIVKRHGIGTFVTE”, the “soluble fraction (log2)” value was 0.0848.
The same measure for “HMAEPSTSYTQFMDQAKEGKIKRVDVQGRTLTVTPTEGATYKITAPGDLWMVEDLRKAGVQVYGQP”: 0.207; for “HMTILTSSQRKALISKMIRQGGVESQSHLVKLLAREGVKVTQATASRDLEDLGATRVRDANGEFQYVIP”: -0.271; for “HMQQEAVSGKLLQLDLAKKEGRLSTDLGREVLFHIPKPELFVHLSVGQRIIIKLDAGQEAVGV”: -0.0409.
Consider “HMSRQDYLQTIYRLSVGKGYTTNKKIADFLSVSKPSVTEMIGKLQGEGLVAMDGAHIFLTEDGAEQ”, for which the “soluble fraction (log2)” value is -0.567.
Consider “HMDSINGEASISRELHGTRFDQAAAILFPEFSRSRLQAWIGAGALTLDGQTARAKDKVTQGQHLVLAAAVE”, for which the “soluble fraction (log2)” value is -0.0684.
For the sequence “HMGISSESIKTFIREIVENEDPKAPLSDQTMVELLAERGIDISRRTVAKYRDEMNLPSSSKRKR”, the “soluble fraction (log2)” value stood at 0.462.
The result for “HMSSEMATLRSIVDNKQAEKVHGMMVDMFTASAMVQVYDKVNDENQAKMREMLKTQKGFQRMADFALSKI” reads -0.172; that for “HMAQISDESALYDLVKSVLDANPQSIADYKAGRDRALGFLMGQAMKLSKGKANPPVINKILKEMLDK”, 0.0791; that for “HMDDFNLSPREKDVLGHLVKGNSYKMIADELQIGYDTVHSHIKKIYKKLHVNSMSEAVAKALKNKL”, 0.543.
For the sequence “HMNHLLYPNPANNFIWIKNSTSNTAVIYNLQGVMSKVEVSEEGKIDISRFSPGLYMIKQGERIYKFTIA”, the “soluble fraction (log2)” value is -1.34.
The same measure for “HMEFLDQAFLHETMRKVNQDATINLLKKVYEVPQKFIGRKVTVQYDPEDLSRVYVKDLSFPEPVTVYPV”: -0.0595; for “HMLSLTSRQQEIFDLIKGHIKKTGMPPTRSEIALHFGFRSANSAEEHLRALARKGFIELIPGTSRGIKLIE”: -0.892; for “HMWGQDVLFTIDKKEFKGKLLEQSDKHTTFLPDGQKTPQKIPNRLIKEIHLGSNKIIDFGNDFLI”: -0.179.
In the case of “HMDIEVEVPNLVGMSLDEAKSIIQSMGLVVGLTIEDPSAKVSDNSVTKQKPTYQTGVKLRSGDMIDIWYAG”, the “soluble fraction (log2)” value is -0.102.
Take “HMDIINLADNIARLRRRRQITQEELADYLGVTKAAVSKWENRQTMPDILLLPRLAGLFEVTIDELVGY”: the “soluble fraction (log2)” value was -1.42.
The same measure for “HMEDKPITKEQKQAMFALLREHFSGDEGNAVYTAVLEREGLAPGDKIMSSVYDRLIDGINEAIRQKLEAGA”: 0.00629; for “HMNPSPYLRRHLSGDWGDLDEDDRRSNDAALASGEARLLSSYQVDPDLKLWIITEWDRSVTTLLLPSE”: -0.0802; for “HMASMNPVWLEFPNIPWGSAGWRMGWGEDYMRRWAKWYISLAEVERQSYKSDWPEPQEWEGFYAFMEHGT”: -1.63.
On to “HMSLPTSDWKRALSLFDEALSLPPDARDAWLAHTIAREPAVSPLLQKLLGAHRRVETNDILATLPR”, for which the “soluble fraction (log2)” value was -0.286.
The same measure for “HMDINLSENLVRLRHAKKLTQEQLADFLGVTKASVSKWETRQSLPDILLLPRLAAFYGVTVDELIGYEP”: -0.253.
On to “HMNEMIFNQKKIGQFFMNPETNSPMIYPLELGHKMKIIELKNGWYNVTDEKTGLNGWVKEEDFGVTKPLDS”, for which the “soluble fraction (log2)” value is -0.205.
Regarding “HMSEQMQVGELVFQLHRKAIKNLHINVLPPDGFVRVSAPQAMTETAIRTAVISRLPWIRRQQQAFAAQ”, the “soluble fraction (log2)” value is -2.12.
The same measure for “HMLNQIGVSQKEFDQIHTAIKIALKTSSLTPTGITEKLPKFPPEKTADILRWMADNKEVLLNSEEKYELKT”: -0.0315.
The result for “HMKVTADVVVADRLKAWIISNNLKPGDRLPTEQKLSEELGVARHTLREGIKRLSQLGIIGSRTGSGMYVKN” reads 0.0235.
With “HMTANDKRNALYRKIEVGRRQLPAMDEVAFRQLLAAEFGVESRKDMSVGQLSRLVNILAEKGAVF”, the “soluble fraction (log2)” value is -0.203.
As to “HMLDNHPQSKKIRALWLEMAAAGVVRDSSEQALALWVKRETGISALRWLSNEQASSVIEKLKKWQRRAAG”, the “soluble fraction (log2)” value was -0.687.
The same measure for “HMGGGTPEERLATLAAIAERQEMLLERLGPNNPLVSLGQYSRTLSRMVQLAGFKDASQYFNELPLDFQMPE”: -0.212; for “HMRKSAVSSTLTSIEGIGATRAKALLKHFKTVAAVSEADLKELEDAPGMTRPSALRVYEYFHGK”: -0.165.
For the sequence “HMGLIAPMPGQIRSVAVSVGDVVKKGQTLLTMEAMKMEIRIQALKDGRVTALHAAQGQTVEGEQILIEVE”, the “soluble fraction (log2)” value was -0.000533.
“HMNRETAISIYRILHILEEPYKEVFTLRTLGDLSYREIADIFGKQENWARVTYHRAKLKIREALVS”: the “soluble fraction (log2)” value was -2.
Consider “HMTFPIDINRADTEQLTALPGIGEVLAKRIIAYREENGSFLSTDELKNVEGIGEKRLEAIVDLITIG”, for which the “soluble fraction (log2)” value was 0.113.
The result for “HMIDLPEAFIQQLKEAVDVGDVTGLRELLGQLRRRYPQQSALSDEAERLLREFDFERLAQLFEGLD” reads -1.42; that for “HMVLLGAAIRELRIQKGITIEELAEMSGLSTGLISKIERDLGNPSISSLRKISRALGVPTAFFFA”, -3.07.
As for “HMPETYVVFSKDGYANLRRGTTINSEILDVLDNGEYVTKLDEVGEWYRVEYADFDGGYIHKSQLKNI”, the “soluble fraction (log2)” value was -0.252.
The same measure for “HMPNDYRKKLEILAKEKGAEYLHTMLTEVDPKSALQIHTNNIKRTIRALEFYHQTGMKISEHNEAEREK”: 0.0272.
As for “HMKLGYTVHGNVVTVKAVANGISLYNTIGQKVAESTDGQTVKAPAHGVYILSVQGKSGSRETAKIVI”, the “soluble fraction (log2)” value is -0.39.
Turning to “HMTQEHDESVNLGKRLLDQALSRFGTSYRQLKKSEIKRILQSSGASTFKYILHQIGLGNRVPLAIANLIV”, the “soluble fraction (log2)” value is -0.0734.
The result for “HMHQVHKIDGVKYYLHLVEKGNTLYGISKQYNVSVERIEKANTEALSDGLKENQTLLIPVTSDNKKT” reads 0.0414; that for “HMATEYIIPTVTNKKLEEAIGIAQLRGFEISVDEYKPSDIDEGTVLEQSPAAGTNAKQGDTISVTVSSG”, 0.294.
As for “HMSGLVPAIGTKGEEGYIRESDIPGSNVKNPEEALAYMEWLKTQPSELLIPLYDEQGNVIGQFAVS”, the “soluble fraction (log2)” value came out at 0.07.
The same measure for “HMESEAKLGVAFNGKTRFDMTFPADADNKTIEEAVLADERAQKYLEGFQVAKVIIVPKRMVNIVLK”: 0.24; for “HMAPNKLQQQEVWTKALPLLQQMIMTIRQIDAAGGDSSPERELLEETAARFDETLDVERFLP”: -0.308.
Regarding “HMKTATAKIKATPFGWLRVRETPSLNGAEIARVNSGESYKILERGEGWIKIKVSDTVEGWVSEAYVELS”, the “soluble fraction (log2)” value is -0.102.
With “HMSQIDLQIGHKIKSKRRKLGISQADMAKKLYISPSYLNLIESGKRKINVDLLLKLSNELGIEMSDIS”, the “soluble fraction (log2)” value was -0.478.
As for “HMQDTRSHARKMLAAIEALLEGRSGSDIQAYTIHNRSITKMTVPELVKWRSYYQQQVRSEDAAASLA”, the “soluble fraction (log2)” value is -0.129.
The result for “HMDMQMPIMNGLEFLERINLTLDDNFSIIVLTGKIEDKSIEKSFELGINAYLRKPFNIYALLGIVRQN” reads -0.0848; that for “HMRLSDSEFESIENAIKEKLENSALTADVLVKELSFDEDKIWKVIRWLEDAEKISEDEAGTLLWKPR”, -0.22.
In the case of “HMLTEREQDTLNFIRQYIDEQGRSPLVSEIAKGLGIKSQGTTHRYIQALVDAGLLERHVGRTRGLHLT”, the “soluble fraction (log2)” value amounted to 0.0721.
In the case of “HMGKASNEVYEVISSKIRTGEWAPGYKLPSEPTLAEEFGVSRATVREALQELISRGRIKREQGRGTYVLH”, the “soluble fraction (log2)” value was determined as 0.161.
The same measure for “HMNKQEFLNTLRIIFKKANVLDVESIIDVYEEHFAVGYEKGLNDEQIIKSLGTPKEIYTSYVEAGI”: -0.615.
The result for “HMKKLTNKQIIFFAEKLAHHSDFASKYSKVGESYEEFAIRLEKELNTPQKVEFYSSYLEKVGFK” reads -2.14.
“HMFDTVFIVRKTSDKPLDGLRTYLNSIGDSLVIGEDDEAFKVHVHTNHPGKVLEEAITYGALQTVKIENMR”: the “soluble fraction (log2)” value was -0.966.
Consider “HMKQYSFEISKADFKKISENFNFKIINEINDSLIISLNDKNINLDELLIFFVERKIKVRSIENI”, for which the “soluble fraction (log2)” value was -0.986.
The same measure for “HMVQIIQLQGTDKRLYELVAPLVMNPEILKQNYNYPFRTSEDFVWFVAVDKKKVIGFIPVEEKKKEYVI”: -0.0678; for “HMATFTPYLVRITASVLNIRKGPGTTYAVTGQIKDRGVYTIVEQKGNWGRLKSGAGWISLSYTKK”: -3.12.
With “HMRVTEIDYGAFMKMIEEKNIGEVKVEDYEIVFTDKDNKNIYKTGIMDDPDLTQRLYNSGAVFA”, the “soluble fraction (log2)” value worked out at 0.0247.
As to “HMEALTPREREVLTLMGQGRSNAEIATLLSIAPRTAKVHVQNILSKLGATNRTEAVSLAVRQGLIS”, the “soluble fraction (log2)” value was determined as 0.301.
With “HMNQSAVMAERMKQTKNRILQTAKEIFLEQGYKRTTIRQIVERSGITSGSIYNIFSSKEEIFSALVDDL”, the “soluble fraction (log2)” value was -2.65.
The same measure for “HMDAIIVPSVLKMKPFEAEEKLSALGLRMKINDTVYIDNMKPGVIVEQSPTAEEDVKTDRVIYVIVNA”: -0.404.
The same measure for “HMDGVTEYTVKSGDSFSAIINKHYNVNYDEKLMQAVAAYNNIEDMNKLQLGQIIKLPPKEQLNL”: 0.0199.
The same measure for “HMDPEEQIQSREIWEAVERALDGMQEKGRRVVIALLEGQTQLEVSRAAGISQPLISYYLKSFRTKVRTELG”: -0.48; for “HMAPGSKAEIPEDLMKVINKDPKMKAFVATLNKANIMAISFRLSTAKKPETRERRFNLILETLKRGEKF”: -3.18.
